Data set [1] deals with T1, MutS (Cy5-labeled) (Escherichia coli) (UniProt P23909).
T1 sequence: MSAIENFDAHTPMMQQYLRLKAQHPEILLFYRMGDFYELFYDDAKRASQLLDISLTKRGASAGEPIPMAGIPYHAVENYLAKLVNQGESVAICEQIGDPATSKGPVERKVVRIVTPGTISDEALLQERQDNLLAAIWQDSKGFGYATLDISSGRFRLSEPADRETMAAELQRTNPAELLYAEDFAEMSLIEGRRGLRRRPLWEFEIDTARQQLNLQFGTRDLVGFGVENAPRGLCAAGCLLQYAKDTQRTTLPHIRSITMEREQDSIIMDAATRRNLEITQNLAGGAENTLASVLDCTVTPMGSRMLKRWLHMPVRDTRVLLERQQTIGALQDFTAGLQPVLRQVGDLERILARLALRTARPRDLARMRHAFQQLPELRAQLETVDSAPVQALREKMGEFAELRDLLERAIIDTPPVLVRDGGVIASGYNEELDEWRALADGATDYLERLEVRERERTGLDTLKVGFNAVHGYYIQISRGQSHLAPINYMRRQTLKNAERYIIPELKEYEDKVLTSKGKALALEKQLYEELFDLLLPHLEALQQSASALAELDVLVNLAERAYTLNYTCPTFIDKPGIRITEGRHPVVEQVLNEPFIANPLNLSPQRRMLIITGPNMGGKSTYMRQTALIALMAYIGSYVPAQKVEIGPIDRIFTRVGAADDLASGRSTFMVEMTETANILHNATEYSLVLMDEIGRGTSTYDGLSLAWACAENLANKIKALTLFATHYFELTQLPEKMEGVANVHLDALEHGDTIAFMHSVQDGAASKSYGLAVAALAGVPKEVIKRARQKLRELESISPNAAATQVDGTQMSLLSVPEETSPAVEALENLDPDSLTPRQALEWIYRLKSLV
The following applies: mung bean nuclease and SSB treated hydrogel chip.

The target of data set [2] is T2, MBP-MutS fusion (Cy5-labeled) (Escherichia coli) (UniProt P23909).
T2 sequence: T1 sequence
Particulars: with nuclease and SSB.

Take “AGTGGTAATCTACTGGGACGGAACAGCTTTGAGGTGCGTGTTTGTGCCTGTCCTGGGAGAGACCGGCGCACAG (double strand) [cExon8/SW-480 PCR product]”: the binding signal (fluorescence units) came out at 461 in data set [1] and 168 in data set [2].

These data come from US20040110161.
